Data taken from a protein production outcome set (Wang et al. 2014).

Test: label from the status in PepcDB records

| Sequence | protein production |
| --- | --- |
| MPALDLIRPSVTAMRVIASVNADFARELKLPPHIRSLGLISADSDDVTYIAADEATKQAMVEVVYGRSLYAGAAHGPSPTAGEVLIMLGGPNPAEVRAGLDAMIAHIENGAAFQWANDAQDTAFLAHVVSRTGSYLSSTAGITLGDPMAYLVAPPLEATYGIDAALKSADVQLATYVPPPSETNYSAAFLTGSQAACKAACNAFTDAVLEIARNPIQRA | failed |
| MNSPHMDYALAPRASGPASWLETFLVTALVIGVGLWLAPEDPLQVQGEFPWSVLAPLLLGVRYGFVRGLISASLLVAAFFALRHSGLASYAQVAPSYIVGVLVCGMLVGEVRDLWERRLLRLQMANEYRQYRLDDFTRAHQILRVSHDRLEQRLAGSDQSLRSSLLGLRDRLRAAPNGGDPLSLLAEPVLTLLGQYGSLRVAGLYRVEQGASAAPQLSLLASIGTMGPLDSQDLLVRMCLEREELVSVREELLDSGAQASVSSLQACVPLVDTQGQVLAILAVRQMPFFAFQERTLSLLALLAGHIADLLHPDPQVLQLQSADAQHFTRQLKRSLVDVERHGLSGCLYAFELTQPNDELARLFERSQRGLDLHLSLANARGHELLLVLLPLTSAEGAQGYLARLGKLVHEHFGMSVELAGLGVKVLPYDLESARQRDGLRNYLYNECGLNDQQVAV | failed |
| MFFTDWEGPWILTDFALELCMAVFNNARFFSNLSEYDDYLAYEVRREGYEAGYTLKLLTPFLAAAGVKNRDVERIAELSAKFVPDAEKAMATLQERWTPVVISTSYTQYLRRTASMIGVRGELHGTEVDFDSIAVPEGLREELLSIIDVIASLSGEELFRKLDELFSRSEVRKIVESVKAVGAGEKAKIMRGYCESKGIDFPVVVGDSISDYKMFEAARGLGGVAIAFNGNEYALKHADVAIISPTAMSEAKVIELFMERKERAFEVLSAVSIPETEIYIMENSDFGEVLEKSKRMRVRLRGLAGELG | not failed |
| MLPGVGVFGTSLTARVIIPLLKDEGFAVKALWGRTQEEAEELAKEMSVPFYTSRIDEVLLHQDVDLVCINLPPPLTRQIAVKTLGIGKNVICDRTATPLDAFRMTSAAHYYPKLMSIMGNVLRFLPAFVRMKQLIEEGYVGEPLVCEVQVHGGSLLGKKYNWSCDDLMGGGGLHSVGTYIIDLLTFLTGQKAVKVHGLLKTFVKQTDHIKGIRQITSDDFCTFQMVLEGGVCCTVTLNFNVPGEFKQDVTVVGSAGRLLAVGTDLYGQRNSAPEQELLVQDATPVSNSLLPEKAFSDIPSPYLRGTIKMMQAVRQAFQDQDDRRTWDGRPLTMAATFDDCLYALCVVDTIKRSSQTGEWQNIAIMTEEPELSPAYLISEAMRRSRMSLYC | failed |
| MLSRLDQRSGGRSPIRAVRTRNSAMRTSRRAIVAFVLGVSALAVPALAFEGAPVNQKDATIPVVTTLPGAAGAVRSKVSPATQETSLSALQYAAEGGHPIAQWKLGRMYANGDGVAQDDVRAFEYFSRIANAHAEDSPSAPQAQIVANAFVALGRYYLSGIPNSKIKPDQDRAREMFSYAASYFGNADAQYDLARLYLKTPDASREDFRYGARWLGLAAQKGQHEAQALLGQMLFNGDRLPRQAARGLMWLTLARDSAGSEETWIKESYNRAFAKASDDDRAMCLQMLEQWVQGRRE | failed |
| MIPVFNITSNRGRLLQQISVGDIWGVGRQWANKLISRGIHTAYDLAMTNPHLLKKCFNAVLMRTAMELQGIACGGLEVLEHHHHHH | failed |
| MSLKDVSLSSFDAHDLDLDKFPEVVRDRLTQFLDAQELTIADIGAPVTDAVAHLRSFVLNGGKRIRPLYAWAGFLAAQGHKNSSEKLESVLDAAASLEFIQACALIHDDIIDSSDTRRGAPTVHRAVEADHRANNFEGDPEHFGVSVSILAGDMALVWAEDMLQDSGLSAEALARTRDAWRGMRTEVIGGQLLDIYLESHANESVELADSVNRFKTAAYTIARPLHLGASIAGGSPQLIDALLHYGHDIGIAFQLRDDLLGVFGDPAITGKPAGDDIREGKRTVLLALALQRADKQSPEAATAIRAGVGKVTSPEDIAVITEHIRATGAEEEVEQRISQLTESGLAHLDDVDIPDEVRAQLRALAIRSTERREGHHHHHH | not failed |
| MDAVVVLCYLLLALPTIIPSVVDGKWLVVAILLLIAIALFFRRPFPLQVVLAVSLLEIAATILNPWGSNVSAGLWFALYAVASLRKRALALVVFAVASLPLSLLYLFMWTSPSEMDNLQDVPENFHLINNIATAVTIMLSNLLATGIGISVRQRREHEAEIAAWAARTTQLGKVTERNRIAREMHDVVAHSLTVMISLSDGAAVVVKKDPERAGDVLGELSRTGRAALADMRRVLGVLRDDSGRPAPLTPLESGQNLAKLLDGFRTAGLPLHYAHTGPGLPADPAFELTVYRIVQESLTNVLRYGRSLSRVDVQVARDGDLVTIDVLDDGRGTREGGSESVGSLGTGQGIAGMNERAGIYAGIVTAGPGKRGGWAVHAELRWNGEKGES | failed |
| RSLQLDKLVNEMTQHYENSVPEDLTVHVGDIVAAPLPTNGSWYRARVLGTLENGNLDLYFVDFGDNGDCPLKDLRALRSDFLSLPFQAIECSLARIA | not failed |
| FGKVTSSQQVAQRLLQEMKGLQQEHLICIYLNTKNDIIQQKTIFKGSLNQSIAHPREIFREAVKYSSARILLAHNHPSGNPTPSPQDIQFTKRMEECGEMMGIQLLDHIILGDSGYISLREENFFASE | failed |
| MRNKDNQHSRLYYIILTIVIIAICVVVVILFNTLKTNRSHSTDRYADFTELKKDTIKNKDWRIKTKHRKNKDILVTAIHGGGIEPGTTEIARRISNVGKYNFYTFEGLRKSNNDQLHVTSTQFNEPILDKLLKNTKETLSIHGFSGDDPIVYIGGKDKEMSHSITKELRKKDFTVKESPNKIDAKSSDNIANKNESNSGVQLELTTALRKQFFKHYKLDRHTRSDSDKYTKDFYKFANAVQKGIEKVNLEHHHHHH | not failed |
| MTHSQQSMVDTFRASLFDNQDITVADQQIQALPYSTMYLRLNEGQRIFVVLGYIEQEQSKWLSQDNAMLVTHNGRLLKTVKLNNNLLEVTNSGQDPLRNALAIKDGSRWTRDILWSEDNHFRSATLSSTFSFAGLETLNIAGRNVLCNVWQEEVTSTRPEKQWQNTFWVDSATGQVRQSRQMLGAGVIPVEMTFLKPAPLEHHHHHH | not failed |
| MNLEHHSNHYQPTCSIEALQARAKLYQTIRTFFAERGVLEVETPIISQAGVTDVHLASVKALRHIEGKERTQYLQTSPEFAMKRLLASGSGPIYQLCKVFRDDEHGRKHNSEFTMLEWYRPEFDLKDLMHETADLLETCLKQRFDEIRPMILSYKHAFQDRLEINPLQATLKQLKDTADRVGLNLDLGNDRLAYIDLLFSHIVEPSLGFDTPVFLTDFPPEMASLAKVRIDEDGEEVAARFEVYIEGLELANAYDELLDANILRARFEADNLERKLQGLAEMPLDENLLAALPHMPACAGIALGVDRLLMIATRQLKIEQVIAFPAAIA | failed |
| MPMYQETSEPSLQALESRQDDILKRLYELKAAVDGLSKMIHTPDADLDVTNILQADEPTTLATNTLDLNSVLGKDYGALKDIVINANPASPPLSLLVLHRLLCERYRVLSTVHTHSSVKNVPENLVKCFGEQARKQSRHEYQLGFTLIWKNVPKTQMKFSVQTMCPIEGEGNIARFLFSLFGQKHNAVTLTLIDSWVDIAMFQLREGSSKEKAAVFRSMNSALGRSPWLVGNELTVADVVLWSVLQQTGGSSGAAPTNVQRWLKSCENLAPFSTALQLLK | failed |
| MTQQHLFPSTKAKSYKLFCFYLLILTSLLHPATAGAADITQQLHRPVNSSMGRQSRDEADSLLRVAEQQYAAGCADKAIDSGLQALDIYHLIGDLRAKGLTYNLLAKAYIELGRFKEGEDALRRRLAIARDTKDFQSQIFALNNLGTLLLQAGEPKAAGETIQEAYTIADNVKNIDGEGLSLSNLGLVSSRLGDYNKAIKLYETALIFRRRTGDAPGEMNTLNNLGDAYLAAGNYPDTIGTYGAAMRIAKTLGDRSNQLRAIDGLVTAHSAVGRYERAFDLLQQRLTIAQELQNLREELKSFESYAKLYEQLGNYPTARNFYERAIIISQTLEDNKQEVFLRDRLTQMLRSQKSILK | failed |
| MFKVLAEAFASARLRLGAILFSPQSLAFLPAFCLGLYWYGGETALMITALVFPVFFLVARAKLAETVTTSRQDSVLGVMQPDGFQDIVAARFREARAGGLISTVFQIEIDDHTSLVERHGQRAAEVISTTSADRIAAVLRDRDAVTHLDTFKYAVCLEPVRQMDLELCIQLAGRIQAALEEPIALDATAVCITSSVGFCQQTKVLSRSGEAWLAAAGHALREAHLNGPGAIRAYSEKMQQKSEIRAELREEVAQALEKGQIKPWFQPQISTDTGLVTGFEALARWNHPKRGMVPPGAFLTAIEQAGMLEKLAEVMIFHAFTALKAWDSAGVCVPQVGVNFAGPELSNPKLVDKIIWELDRFDLAPERLAVEVLETVVANSPDDTITRNINGLSKLGCRIDLDDFGTGHASISSIRRFSVSRIKIDRSFVIKADRDPEQQRMISAILTMAERLEVETLAEGVESVGEHALLAQLGCDHVQGFGIGKPMPFDQTLDWIASHNAKLQATPQILPNKLRLEHHHHHH | not failed |
| MSQATAKVNREVQAFLQDLKGKTIDHVFFVACGGSSAIMYPSKYVFDRESKSINSDLYSANEFIQRNPVQLGEKSLVILCSHSGNTPETVKAAAFARGKGALTIAMTFKPESPLAQEAQYVAQYDWGDEALAINTNYGVLYQIVFGTLQVLENNTKFEQAIEGLDQLQAVYEKALKQEADNAKQFAKAHEKESIIYTMASGANYGVAYSYSICILMEMQWIHSHAIHAGEYFHGPFEIIDESVPFIILLGLDETRPLEERALTFSKKYGKKLTVLDAASYDFTAIDDSVKGYLAPLVLNRVLRSYADELAEERNHPLSHRRYMWKVEY | not failed |
| MKKKALLPLFLGIMIFLAGCDYSTPEKQDGFFFNTFVQPMKHLLQWLGNDVFHNNFGLAIIVLVLFIRLILLPFMLSNYKNSHMMREKMKVAKPEVDGIQEKVKRARTQEEKMAANQELMEVYKKYDMNPMKSMLGCLPILIQMPIIMGLYFVLKDKLVNGLSEHPHFLWFNLTKPDIWITVIAGVLYFIQAVVSSKTMPQEQRQMGYMMMVISPIMIIWISLQASSALGLYWSVSALFLVIQTHFANIYYSKLAKKEVQPFIEKYEREHNPYSKKKGKNTQVVSKKNKK | failed |
| MKWDKKWNDGIILALETAFISWFTYAFLYQNYLLYKWHRGSPLPSKIPFVLAGIFVGLAFLAWKGRNLLKPLRENNGGALDERS | failed |
| MKALEGFTILLALVGVIPRIEGCIRVPPGVTAAKSPVDDNYVLSVNGNTQSYVPGQRYNVSLSAFSGLSFISFMLALDLESGDGDGDANALGTWEIADLAETRFSPRCPNLVENTNTNVKTRVDVFWVAPSSPGQGCILLRATVMQHRDVWFMDDGFLTKRMCEEEVDDIDTQPSIVDPCCACDEAKYELTFEGKWSRHTHPKDFPANSWRTRFSDIIGASHTLDYRFWQYGELASEGLREVAEHGSTRTLESELKDQSEHIRTIIKARGIAYPNVTGKTFAVFRVDSNHHLISLVSMVDPSPDWIVGVSGLELCLPNCSWVENKVHNLYPWDAGTDSGPSYMSADQPQVPPDVVRRIKSNFPNDPRSPFYDPTGAQMKPLATLHINRRRLYEKNCESSDSEQVPPECATNSWSRWDECTTKCGPGKQYRIREFKNPALASRHRCNNALREEKNCVGHKCAGFNEETAEGGEPEVAPSPGSSDDPQCGLSDWSEWSSCTVTCGTGEMTRSRHYLNKKAKKKCQKASRARLHETKICEAMECGGDIENEGGAGEPEEEQAGGDGGGSAEKRSIFRNFESYSQHREDYIPPVCGVTPWSDFSPCMGPCGGHGKRQRIRKVWNNNQVYGVTDPNDDGQDPCRHIKLHEEVNCTNPSCDTIVPGFCYDELTDSPCRDNDVANFWYYDHVSDQCAIYWSDRCDTNRNKFKSKEECEETCRLPRHKQELQHDGIPAIDCLVSDWVSHSCNASCGDGFQLRTRRVLRTPKYGGKPCPKHLVRLDRCYQRCDDMYSISGRGFGERRHVVRAPQPEPQDECRYSEWSAWTPCTATCGDNAVRQRTRTLMNTDLSYKCKDRVRMEKCVMMPCQLTSNDDPERW | failed |
